Test results taken from patent US7045613B2, “IKK-αproteins, nucleic acids and methods” (Amgen, Inc., priority 1997, dated 2006).

Experiments:
TRAF3 = molecular target: T1, TRAF3 (Homo sapiens, UniProt Q13114); assay: Coimmunoprecipitation with HA-tagged TRAF3 in 293 cells; type: binding; conditions: Flag-tagged protein coexpressed with HA-TRAF3
T1 construct: expressed in transfected cells; host or cells: 293 human embryonic kidney cells
T1 sequence (Q13114 1-568): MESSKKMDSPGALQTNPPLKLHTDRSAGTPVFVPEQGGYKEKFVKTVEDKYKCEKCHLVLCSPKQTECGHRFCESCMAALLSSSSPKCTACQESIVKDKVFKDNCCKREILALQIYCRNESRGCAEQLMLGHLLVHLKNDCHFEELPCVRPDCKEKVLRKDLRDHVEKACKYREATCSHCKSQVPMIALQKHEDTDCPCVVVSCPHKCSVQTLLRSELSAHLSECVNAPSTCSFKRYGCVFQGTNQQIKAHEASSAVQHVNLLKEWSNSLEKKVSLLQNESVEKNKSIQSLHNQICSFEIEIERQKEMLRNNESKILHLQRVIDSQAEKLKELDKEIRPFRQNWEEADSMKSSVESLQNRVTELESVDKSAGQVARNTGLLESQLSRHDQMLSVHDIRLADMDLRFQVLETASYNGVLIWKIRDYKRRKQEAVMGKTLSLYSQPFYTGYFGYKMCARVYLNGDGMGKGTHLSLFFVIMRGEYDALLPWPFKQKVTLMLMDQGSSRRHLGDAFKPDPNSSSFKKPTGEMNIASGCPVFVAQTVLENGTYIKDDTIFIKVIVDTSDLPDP
Text: (§1) The interaction of IKK-α with NIK was confirmed in mammalian cell coimmunoprecipitation assays. Human IKK-α containing an N-terminal Flag epitope tag was transiently coexpressed in 293 human embryonic kidney cells with Myc epitope-tagged NIK or HA epitope-tagged TRAF proteins. Cell lysates were immunoprecipitated using a monoclonal antibody against the Flag epitope, and coprecipitating NIK or TRAF proteins were detected by immunoblot analysis with an anti-Myc or anti-HA monoclonal antibodies.

TRAF2 = assay: Coimmunoprecipitation with HA-tagged TRAF2 in 293 cells; type: binding, human
Text: as §1

NIK = molecular target: T2, NIK (Homo sapiens, UniProt Q99558); assay: Coimmunoprecipitation with Myc-tagged NIK in 293 cells; type: binding; conditions: Flag-tagged protein coexpressed with Myc-NIK, anti-Flag immunoprecipitation
T2 construct: expressed in transfected cells; host or cells: 293 human embryonic kidney cells
Text: as §1

[1] = tested on: NF-κB-dependent reporter gene; assay: E-selectin-luciferase NF-κB-dependent reporter gene assay, HeLa cells; type: cell-based, human; conditions: transient overexpression in HeLa cells, compared to vector control
Text: (§2) To investigate a possible role for IKK-α in NF-κB activation, we examined if transient overexpression of IKK-α might activate an NF-κB-dependent reporter gene. An E-selectin-luciferase reporter construct (Schindler and Baichwal, 1994) and a IKK-α expression vector were cotransfected into HeLa cells. IKK-α expression activated the reporter gene in a dose-dependent manner, with a maximal induction of luciferase activity of about 6 to 7-fold compared to vector control. Similar results were obtained in 293 cells, where IKK-α overexpression induced reporter gene activity approximately 4-fold. […] Thus, IKK-α induces NF-κB activation when overexpressed.

[2] = tested on: NF-κB-dependent reporter gene; assay: NF-κB-dependent reporter gene assay, 293 cells; type: cell-based, human; conditions: overexpression in 293 cells
Text: as §2
Overexpression of IKK-α(307-745) blocked TNF- and IL-1-induced reporter gene activation similar to overexpression of NIK(624-947). IKK-α(307-745) was also found to inhibited NF-κB-dependent reporter gene activity elicited by overexpression of TRAF2, TRAF6 and NIK.

T2 sequence (Q99558 whole entry): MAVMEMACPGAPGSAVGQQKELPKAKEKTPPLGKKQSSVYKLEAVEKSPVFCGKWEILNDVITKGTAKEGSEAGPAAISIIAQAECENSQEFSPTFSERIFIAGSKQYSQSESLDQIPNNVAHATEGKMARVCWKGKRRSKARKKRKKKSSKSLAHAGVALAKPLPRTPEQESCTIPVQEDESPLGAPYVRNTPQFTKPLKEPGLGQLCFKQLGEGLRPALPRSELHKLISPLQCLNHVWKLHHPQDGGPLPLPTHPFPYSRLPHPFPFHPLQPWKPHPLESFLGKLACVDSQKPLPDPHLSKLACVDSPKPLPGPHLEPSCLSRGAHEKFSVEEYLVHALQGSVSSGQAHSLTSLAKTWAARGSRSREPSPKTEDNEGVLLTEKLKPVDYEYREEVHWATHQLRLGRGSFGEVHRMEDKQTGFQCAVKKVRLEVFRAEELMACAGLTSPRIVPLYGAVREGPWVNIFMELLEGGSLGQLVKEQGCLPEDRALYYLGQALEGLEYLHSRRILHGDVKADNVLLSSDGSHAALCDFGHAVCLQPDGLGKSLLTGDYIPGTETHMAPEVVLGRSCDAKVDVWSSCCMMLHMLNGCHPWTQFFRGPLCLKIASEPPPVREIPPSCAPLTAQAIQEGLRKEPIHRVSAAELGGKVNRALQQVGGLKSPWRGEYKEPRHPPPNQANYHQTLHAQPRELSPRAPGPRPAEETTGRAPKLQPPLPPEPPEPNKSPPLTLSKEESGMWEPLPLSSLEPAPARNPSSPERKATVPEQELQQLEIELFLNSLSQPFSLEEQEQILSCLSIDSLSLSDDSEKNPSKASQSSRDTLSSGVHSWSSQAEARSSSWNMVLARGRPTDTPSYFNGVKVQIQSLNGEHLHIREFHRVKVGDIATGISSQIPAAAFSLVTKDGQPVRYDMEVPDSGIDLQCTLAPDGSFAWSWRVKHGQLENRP

B1: IKK-α: novel human IκB kinase, full conceptual translate SEQ ID NO:4 (protein)
chain: MERPPGLRPGAGGPWEMRERLGTGGFGNVCLYQHRELDLKIAIKSCRLELSTKNRERWCHEIQIMKKLNHANVVKACDVPEELNILIHDVPLLAMEYCSGGDLRKLLNKPENCCGLKESQILSLLSDIGSGIRYLHENKIIHRDLKPENIVLQDVGGKIIHKIIDLGYAKDVDQGSLCTSFVGTLQYLAPELFENKPYTATVDYWSFGTMVFECIAGYRPFLHHLQPFTWHEKIKKKDPKCIFACEEMSGEVRFSSHLPQPNSLCSLIVEPMENWLQLMLNWDPQQRGGPVDLTLKQPRCFVLMDHILNLKIVHILNMTSAKIISFLLPPDESLHSLQSRIERETGINTGSQELLSETGISLDPRKPASQCVLDGVRGCDSYMVYLFDKSKTVYEGPFASRSLSDCVNYIVQDSKIQLPIIQLRKVWAEAVHYVSGLKEDYSRLFQGQRAAMLSLLRYNANLTKMKNTLISASQQLKAKLEFFHKSIQLDLERYSEQMTYGISSEKMLKAWKEMEEKAIHYAEVGVIGYLEDQIMSLHAEIMELQKSPYGRRQGDLMESLEQRAIDLYKQLKHRPSDHSYSDSTEMVKIIVHTVQSQDRVLKELFGHLSKLLGCKQKIIDLLPKVEVALSNIKEADNTVMFMQGKRQKEIWHLLKIACTQSSARSLVGSSLEGAVTPQTSAWLPPTSAEHDHSLSCVVTPQDGETSAQMIEENLNCLGHLSTIIHEANEEQGNSMMNLDWSWLTE
association with TRAF3 (TRAF3): failed to associate | association with TRAF2 (TRAF2; Flag-tagged protein coexpressed with HA-TRAF2, without NIK): failed to associate | coprecipitation of TRAF2 when NIK coexpressed (TRAF2; NIK coexpressed with IKK-α and TRAF2): strong coprecipitation | coprecipitation / association with NIK (NIK): able to coprecipitate NIK | maximal induction of luciferase activity [1]: 6 to 7 fold | induced reporter gene activity [2]: approximately 4 fold

B2: IKK-α(307-745): deletion mutant IKK-α protein lacking most of the N-terminal kinase domain; kinase-inactive (protein)
chain: ILNLKIVHILNMTSAKIISFLLPPDESLHSLQSRIERETGINTGSQELLSETGISLDPRKPASQCVLDGVRGCDSYMVYLFDKSKTVYEGPFASRSLSDCVNYIVQDSKIQLPIIQLRKVWAEAVHYVSGLKEDYSRLFQGQRAAMLSLLRYNANLTKMKNTLISASQQLKAKLEFFHKSIQLDLERYSEQMTYGISSEKMLKAWKEMEEKAIHYAEVGVIGYLEDQIMSLHAEIMELQKSPYGRRQGDLMESLEQRAIDLYKQLKHRPSDHSYSDSTEMVKIIVHTVQSQDRVLKELFGHLSKLLGCKQKIIDLLPKVEVALSNIKEADNTVMFMQGKRQKEIWHLLKIACTQSSARSLVGSSLEGAVTPQTSAWLPPTSAEHDHSLSCVVTPQDGETSAQMIEENLNCLGHLSTIIHEANEEQGNSMMNLDWSWLTE
coprecipitation / association with NIK (NIK): able to associate with NIK | NF-κB-dependent reporter gene activity elicited by overexpression of TRAF2, TRAF6 and NIK [2]: inhibited | TNF- and IL-1-induced reporter gene activation [2]: blocked

B3: NIK(624-947): kinase-inactive mutant of NIK comprising its TRAF2-interacting C-terminal domain (protein, UniProt Q99558 624-947, looked up, fragment)
chain: PLTAQAIQEGLRKEPIHRVSAAELGGKVNRALQQVGGLKSPWRGEYKEPRHPPPNQANYHQTLHAQPRELSPRAPGPRPAEETTGRAPKLQPPLPPEPPEPNKSPPLTLSKEESGMWEPLPLSSLEPAPARNPSSPERKATVPEQELQQLEIELFLNSLSQPFSLEEQEQILSCLSIDSLSLSDDSEKNPSKASQSSRDTLSSGVHSWSSQAEARSSSWNMVLARGRPTDTPSYFNGVKVQIQSLNGEHLHIREFHRVKVGDIATGISSQIPAAAFSLVTKDGQPVRYDMEVPDSGIDLQCTLAPDGSFAWSWRVKHGQLENRP
TNF- and IL-1-induced reporter gene activation [2]: blocked
